# B1: human CHIP-TPR (residues 21-154) [human] / biotin-GSGSGP(pT)IEEVD [modified: biotin, printed before the first residue; phosphothreonine (pT; Thr636 in HSPA1A numbering); biotin, printed before the first residue; phosphothreonine (pT; … (parent complex)
# chain 1: EKSPSAQELKEQGNRLFVGRKYPEAAACYGRAITRNPLVAVYYTNRALCYLKMQQHEQALADCRRALELDGQSVKAHFFLGQCQLEMESYDEAIANLQRAYSLAKEQRLNFGDDIPSALRIAKKKRWNSIEERR
# chain 2: GSGSGPTIEEVD
# Variants of: B1
# Assay: biolayer interferometry; read off a plot
row,Kd,Variant
1,~1 µM,chain 1 G112S
2,~6.6 µM,chain 1 N45S

# From article PMC13090976 (Cell Stress & Chaperones, 2026)
